The values below come from US20060093602A1.

The assay concerns the target gp130 on HepG2 B6 cells (UniProt P40189). The assay can be described thus: cell-based or functional assay.

Chain of gp130 on HepG2 B6 cells (P40189 23-918 limits assumed): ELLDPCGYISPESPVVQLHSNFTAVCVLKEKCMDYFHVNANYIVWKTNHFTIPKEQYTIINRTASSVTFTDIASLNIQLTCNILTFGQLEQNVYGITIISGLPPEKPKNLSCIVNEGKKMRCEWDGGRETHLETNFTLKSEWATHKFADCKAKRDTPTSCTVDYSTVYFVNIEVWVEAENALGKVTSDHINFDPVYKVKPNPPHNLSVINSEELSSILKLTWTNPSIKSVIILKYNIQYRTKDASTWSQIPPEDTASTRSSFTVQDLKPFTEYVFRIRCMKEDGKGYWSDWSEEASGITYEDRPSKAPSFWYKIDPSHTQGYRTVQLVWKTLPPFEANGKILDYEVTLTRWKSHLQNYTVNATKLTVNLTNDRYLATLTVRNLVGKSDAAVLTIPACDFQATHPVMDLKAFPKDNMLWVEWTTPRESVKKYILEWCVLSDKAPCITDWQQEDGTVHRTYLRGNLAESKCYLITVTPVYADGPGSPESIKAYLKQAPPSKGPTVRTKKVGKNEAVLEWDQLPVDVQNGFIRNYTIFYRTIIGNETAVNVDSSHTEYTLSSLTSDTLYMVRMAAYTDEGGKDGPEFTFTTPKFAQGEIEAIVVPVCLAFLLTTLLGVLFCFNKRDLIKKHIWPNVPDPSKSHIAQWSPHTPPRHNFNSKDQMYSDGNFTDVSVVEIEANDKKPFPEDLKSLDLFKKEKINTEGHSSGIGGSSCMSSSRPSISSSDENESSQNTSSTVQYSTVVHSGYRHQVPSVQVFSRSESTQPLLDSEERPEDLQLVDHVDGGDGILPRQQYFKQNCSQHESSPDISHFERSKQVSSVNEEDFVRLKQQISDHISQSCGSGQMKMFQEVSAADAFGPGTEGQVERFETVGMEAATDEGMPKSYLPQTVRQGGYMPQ

Substance “OSM-GST L13A (from UniProt P08515 1-218) (ligand)” yielded an EC50, sPAP, HepG2 B6, Expt 1 of 0.0657 µg/mL; an EC50, sPAP, HepG2 B6, Expt 2 of 0.0549 µg/mL; an EC50 as % of wild type, sPAP, HepG2 B6, Expt 1 of 269%; an EC50 as % of wild type, sPAP, HepG2 B6, Expt 2 of 171%. The substance also showed a mean EC50 as % of wild type, sPAP, HepG2 B6 of 220%.
